Laboratory results reported in the DeepSol protein solubility set.

test: soluble on expression in E. coli; label from the status in PepcDB or PDB records

| Sequence | soluble on expression in E. coli |
| --- | --- |
| MGSDKIHHHHHHMPQTEAPDRILLIKLRHHGDILLTTPVARTLKSRFPQCEIDMLVYRETVPLLQHNPDIARVWTLDRSLRGWRKLVSQLRLLLALRRRRYQTVIHLSDQMQGAFFAKLLARRHAIGFDYPKRRKSPWHRFFTALAPLAPSDTLHTVSQNLLALSPLGITPTADEQRCVLPIQASDREAVAALLREAGVSGPYIVIHPSSRWFFKCWEDDRFAGLAEALASDGWSIVLTAAPDPAEMDMVAAIQGKIRSDRVVSVAGRLTLNQLAAIIDGARMFIGVDSVPMHMAAALGKDTVALFGPSKIHEWHPWMTRHRLLNAADYGELIDPDQVDTSTRQRYLKNIPLEAALRASRELLSSPAQE | not soluble |
| MGSDKIHHHHHHSRSTQGVRSLGFYNRHTGERGQGSYWIDGDYQTNTLNDFNHLLRDHRQNETAPMDKRLFDLLFSLKQTLQVDEDFHVISGYRSPKTNQMLANRSSAVAKKSYHMKGMAMDIALPDVNLKDLRDAAISLKLGGVGYYPSSGFVHVDTGPIRTW | not soluble |
| KSYASTPELRKTWLDSMARIHVKNGDLSEAAMCYVHVTALVAEYLTRKGVFRQGCTAFRVITPNIDEEASMMEDVGMQDVHFNEDVLMELLEQCADGLWKAERYELIADIYKLIIPIYEKRRDFERLAHLYDTLHRAYSKVTEVMHSGRRLLGTYFRVAFFGQGFFEDEDGKEYIYKEPKLTPLSEISQRLLKLYSDKFGSENVKMIQDSGKVNPKDLDSKYAYIQVTHVIPFFDEKELQERKTEFERSHNIRRFMFEMPFTQTGKRQGGVEEQCKRRTILTAIHCFPYVKKRIPVMYQHHTDLNPIEVAIDEMSKKVAELRQLCSSAEVDMIKLQLKLQGSVSVQVNAGPLAYARAFLDDTNTKRYPDNKVKLLKEVFRQFVEACGQALAVNERLIKEDQLEYQEEMKANYREMAKELSEIMHEQLG | soluble |
| MSLARLEPWAEKLTSDPATCRHLIEEFGSPVNVLHSGSMPRNINELVDAGIQMGVDTRIFFARKANKGLTFVDAVKDTGHGVDVASERELSQVLNRGVPGERIILSAAIKPDRLLALAIENGVIISVDSRDELDRISALVGDRVARVAPRVAPDPAVLPPTRFGERAADWGNRLTEVIPGVDIVGLHVHLHGYAAKDRALALQECCQLVDSLRECGHSPQFIDLGGGVPMSYIESEEDWIRYQSAKSATSAGYAESFTWKDDPLSNTYPFYQTPVRGNWLKDVLSKGVAQMLIDRGLRLHLEPGRSLLDGCGVTLAEVAFVKTRSDGLPLVGLAMNRTQCRTTSDDFLIDPLHITDGDVGEEIEAYLVGAYCIEDELILRRRIRFPRGVKPGDIIGIPNTAGYFMHILESASHQIPLAKNVVWPEGQLDDIDADEGHHHHHH | soluble |
| MGHHHHHHSHMEGSFSDGGALPEGLAEEAEPQGAAWSGDSGTVSQSHSSASGPWEDEGAEDGAPGRDLPLLRRAAAGYAACLLPGAGARPEVEALDASLEDLLTRVDEFVGMLDMLRGDSSHVVSEGVPRIHAKAAEMRRIYSRIDRLEAFVRMVGGRVARMEEQVTKAEAELGTFPRAFKKLLHTMNVPSLFSKSAPSRPQQAGYEAPVLFRTEDYFPCCSERPQL | not soluble |
| MSLTVSFVHLRLHTEFSLVDGLVRVKPLAKAVAGLGMPAVAVTDQSNMCSLVKFYKTAMGAGIKPICGADIWLASREEDGPLSRLSLLAMNAKGYRNLTELISRGWSEGQRNGEIIIERDWVKEAAEGLIALSAAKEGEIGHALLDGEEAKAEALLREWMEVFPERFYVEVQRTSRVNDEEHLHAAVALASRCNAPLVATNDVRFIKQEDFEAHETRVCIGEGRTLDDPRRPRTYSDQQYLKSPAEMAELFSDLPEALENTVEIAKRCNIEVQLGKYFLPDFPTPNGMGIDDYLRHASFEGLEERLEVLLPKDTPDYEAKRQVYVDRLNFELDIIIQMGFPGYFLIVMDFIKWAKNNGVPVGPGRGSGAGSLVAYVLKITDLDPLAYDLLFERFLNPERISMPDFDVDFCMEGRDRVIDYVADAYGRNAVSQIITFGTMAAKAVVRDVARVQGKSYGLADRLSKMIPFEVGMTLDKAYEQEEMLRDFLKSDEEAAEIWEMALKLEGITRGTGKHAGGVVIAPTKLTDFSPIACDEEGGGLVTQFDKDDVEAAGLVKFDFLGLRTLTIIKWAMEIINREQAKKGLEPVNIDFIPLDDKPTYSLLQKAETTAVFQLESRGMKELIKKLKPDCLEDLIALVALFRPGPLQSGMVDDFINRKHGRAELSYPHPDYQYAGLEPVLKPTYGIILYQEQVMQIAQVMAGYTLGGADMLRRAMGKKKPEEMAKQRGGFIEGCKNNGEGHHHHHH | not soluble |
| MAHHHHHHMAQCLTWQVLDQRQTGECLDAVDLEALRAVIKRIDDDRDGALLHSSERTATQVNVLLDLYGHLVLFAKASQFSPFKTSTLFGIVHRVHEASIADRLSRFHSYDLLRELVVRHSVHRPPYSTMVFSVREVQDIDTYMMSTYYRHYKMYVYCFVPREVASLRTVMLNDTAEAPPAQLPPLSAAIREDAWKEKMQEKVRTLEEAEMEEQLIVSDAVSEAQKNAATLDNSRFMAGISAQLEAIRDAVSTKSSERLDLIEEKLTAIEAKVNEAQSSGNRSRQGSRGSSKRK | soluble |
| MFSPLECRLAVACKFQDDRYYKLFHQYFDLLAQVHSVVETMDGLWMLRVWRAQKFGPESIKERRERQLFHVTQFSFKRYIVPPNPRIGKAIEEFGKEYLIEINVYDEHRADLVSLNSGNFVAIQNVHAASTPHREIQILHGGGEAYQRGISTVPVDFEVDAFQNFKRKVESVLENVLYDENFIEFQQPEEVTENRVPEEPQLNIHKDPLPSDLPQ | soluble |
| MGAVVVKDLRKRIGKKEILKGISFEIEEGEIFGLIGPNGAGKTTTLRIISTLIKPSSGIVTVFGKNVVEEPHEVRKLISYLPEEAGAYRNMQGIEYLRFVAGFYASSSSEIEEMVERATEIAGLGEKIKDRVSTYSKGMVRKLLIARALMVNPRLAILDEPTSGLDVLNAREVRKILKQASQEGLTILVSSHNMLEVEFLCDRIALIHNGTIVETGTVEELKERYKAQNIEEVFEEVVKCSENF | not soluble |
| MGSDKIHHHHHHEETRTEVEKKNYMNNAEEAKDVLLGVYRTNTLDAMYGYYLSILFNLGTDISQVEGSGNENFRIIPTNSFPTTQSEVQQTWAALYTGIYRANDFLERISNKIGSYTTTDKKLATLYIAEARALRGMFYFELVRRFGNVVLMTSTQMSNQNPATYVQSAPEKVYEYIEDDLLYACDILPYATDDQYRESNDYRFSKGAALGLLTKVYATWAGYPVKDESKWEAAAKTARILVESGKHGLLKDYEQLWKNTCNGTWDPTESLIEISFYSPTVSGNSDPVGRIGKWNGVKTTAIAGVRGSCAANVKVVHTFVLDWREDVSDIRRDLSIANYQYTDTKKSLWVAGASDTDESAAEKDADPTKAQKNKQNYTPAKWDIQKYVTTNSFINNDKSNVNWYFLRYADVLLLYAEALNEWKHGPDAEAYNAINAVRRRGYGNPSNTSACDLPQGLDETSFREAVRKERSYELSFEGHRRQDLIRWGIYYKTVQATAKELGYWWEGTGSPNYSVATYTEEGKHELFPIPQRDMDLCIQFNQNPKW | not soluble |
| MQNSLLTQHIAQIIAAEISSQPTQARAAIALLDEGASVPFIARYRKEATGGLDDTQLRILETRLTYLRELEERRSTILTSITEQGKLNDLLHAEILAADTKSRLEDLYLPYKPKRRTRAQIAREAGLEPLADSLLADPTLIPETVAANFVDPEKGITDIKTALEGARAILIERWGEDAALIGELRQWLANNGVIHARLIDNKEDTGAKYRDYFNHTELLSKIPSHRLLALFRARSEEILHLDLDPGNDADAGHQYCESMVMQAACVADQGRPADTWLMTACRLTWRAKLHMHLMLDLFNQAREKAEAEAITVFSNNLKDLLLAAPAGPRIVLGIDPGIRTGCKIAIVDTTGKLIATETIYPHEPRREWDKSLHTLKTLCTQHHITLIAIGNGTASRETDKLVSDLIKAHPALELQKIVVSESGASVYSASESAAKEFPDLDVSLRGAVSIARRLQDPLAELVKIDPKAIGVGQYQHDVDQFHLAKALDARVEDCVNAVGVYVNTASAALLSRVSGLSASVAENITRYRDEHGSFKQRQDLLKVPRLGAKTFEQCAGFLRIADGNQPLDASAVHPEAYPVVERIVQTTGKPIKALIGDSHTLRMLKPEQFTDTNFGIPTIRDIIKELEKPGRDPRPEFKAVRFTEGVENIKDLKPGMILEGVVSNVAAFGAFVDIGVHQDGLIHISALADRFVKDPRDIVKAGDIVKVKVLEIDVPRKRIALTCRLHEETPPETPVANRTGNERGRPNPVAKKVKATPTDNALAQAFARARLK | soluble |
| DEMVRFNPKKMSLKKEQVIKIIKIGAPAGLQGVVFSVSNVCIQSAINGFGTKAIAGSSAALNYEYFTYYVINAFNQTTVTFTSQNYGAKKLERCKKA | not soluble |
| MGSDKIHHHHHHMASPGSGFWSFGSEDGSADPENPGTARAWCQVAQKFTGGIGNKLCALLYGDSGKPAEGGGSVTSRAATGKVACTCDQKPCNCPKGDVNYAFLHATDLLPACDGERPTLAFLQDVMNILLQYVVKSFDRSTKVIDFHYPNELLQEYNWELADQPQNLEEILTHCQTTLKYAIKTGHPRYFNQLSTGLDMVGLAADWLTSTANTNMFTYEIAPVFVLLEYVTLKKMREIIGWPGGSGDGIFSPGGAISNMYAMLIARYKMFPEVKEKGMAAVPRLIAFTSEHSHFSLKKGAAALGIGTDSVILIKCDERGKMIPSDLERRILEVKQKGFVPFLVSATAGTTVYGAFDPLLAVADICKKYKIWMHVDAAWGGGLLMSRKHKWKLSGVERANSVTWNPHKMMGVPLQCSALLVREEGLMQSCNQMHASYLFQQDKHYDLSYDTGDKALQCGRHVDVFKLWLMWRAKGTTGFEAHIDKCLELAEYLYTIIKNREGYEMVFDGKPQHTNVCFWFVPPSLRTLEDNEERMSRLSKVAPVIKARMMEYGTTMVSYQPLGDKVNFFRMVISNPAATHQDIDFLIEEIERLGQDL | not soluble |
| MRSMTLEQLRTASETGGVSSVTLKGQGGAFLVQINTRSGVAAILTKARNSEPRRFGNPAAALNVLREVGITIGQFDASEWNPDEREPVARSSDNRAKALHKAHEAAAYNEWLAAEIQEAIDDPRPGIPHDEVMARMDARIVRHKAAGAKRA | not soluble |
| MALSKLNHLYMAVVADHSKRPHHHGQLDGVEAVQLNNPTCGDVISLTVKFDEDKIEDIAFAGNGCTISTASSSMMTDAVIGKSKEEALALADIFSEMVQGQENPAQKELGEAELLAGVAKFPQRIKCSTLAWNALKEAIKRSANAQHLTDQNVKEGKNV | soluble |
| MGSHHHHHHDITSLYKKAGSENLYFQMKLRYLNILKEKLGREPTFVELQAFSVMWSEHCGYSHTKKYIRRLPKTGFEGNAGVVNLDDYYSVAFKIESHNHPSAIEPYNGAATGVGGIIRDVLAMGARPTAIFDSLHMSRIIDGIIEGIADYGNSIGVPTVGGELRISSLYAHNPLVNVLAAGVVRNDMLVDSKASRPGQVIVIFGGATGRDGIHGASFASEDLTGDKATKLSIQVGDPFAEKMLIEAFLEMVEEGLVEGAQDLGAGGVLSATSELVAKGNLGAIVHLDRVPLREPDMEPWEILISESQERMAVVTSPQKASRILEIARKHLLFGDVVAEVIEEPVYRVMYRNDLVMEVPVQLLANAPEEDIVEYTPGKIPEFKRVEFEEVNAREVFEQYDHMVGTDTVVPPGFGAAVMRIKRDGGYSLVTHSRADLALQDTYWGTLIAVLESVRKTLSVGAEPLAITNCVNYGDPDVDPVGLSAMMTALKNACEFSGVPVASGNASLYNTYQGKPIPPTLVVGMLGKVNPQKVAKPKPSKVFAVGWNDFELEREKELWRAIRKLSEEGAFILSSSQLLTRTHVETFREYGLKIEVKLPEVRPAHQMVLVFSERTPVVDVPVKEIGTLSR | soluble |
